According to the supplement of paper PMC9170038:

Tested on: MS2 coat protein
Assay: apparent KD of MS2 coat protein; designed switch direction (-1 OFF switch, 1 ON switch): -1; higher = weaker reporter binding
Method in brief: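 RNA switches sharing common flanks were transcribed by stalled E. coli RNA polymerase on Illumina chips. A doubling series of SNAP-549-labelled MS2 coat protein, from 0.7 or 1.5 nM to 3 µM, was applied in Tris-HCl pH 7.5 buffer with KCl, MgCl2, BSA, DTT, tRNA and Tween-20. Each step lasted 0.8–1.5 h at the bottom of the series and 10–20 min at the top. Normalised cluster fluorescence was curve-fitted, giving apparent KD as the per-design median over clusters.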

[1] = input ligand: microRNA oligo, concentration not stated
[2] = Eterna round: R95, input ligand: FMN 200 uM
[3] = Eterna round: R95, input ligand: microRNA oligo, concentration not stated
[4] = Eterna round: R95, input ligand: none

Row | Sequence | apparent KD of MS2 coat protein (input ligand: FMN 200 uM) [nM] | apparent KD of MS2 coat protein (input ligand: none) [nM] | apparent KD of MS2 coat protein [1] [nM] | apparent KD of MS2 coat protein [2] [nM] | apparent KD of MS2 coat protein [3] [nM] | apparent KD of MS2 coat protein [4] [nM]
1 | CGAUCGGUAGGAUAUACAUGAACCUUGGUUGUGAGGCCUAAACAUGAGGAUCACCCAUGUAGAAGGACCUCGUA [EX2 C.10] (Eterna round: R97, puzzle: Exclusion 2) | 13.9 | 13.8 | – | – | – | –
2 | ACAAGCUUUUAGAUUCUUAACAUGAGGAUCACCCAUGUGCUCGUCUUAUUUUCCGGCGGGCCGCCGGAAAAGCUUGU (Eterna round: R97, puzzle: Sensor, turn-off variant 1) | 92.5 | 93.8 | – | – | – | –
3 | GGGUACAAGCUAAGAUCCUACAUGAGGAUCACCCAUGUGGUCCGGUGACGUGAGUCACCGGACUUAGCUCGUCUUGU [salish99_S_TOV1_R5_003] (Eterna round: R97, puzzle: Sensor, turn-off variant 1) | 59.3 | 61.3 | – | – | – | –
4 | UGAGAGCAAGGAUAUACGUUGGUGUAUACCCGGGUAUGUAUACAUGAGGAUCACCCAUGUAGAAGGUGCACAAA [EX2 B.1] (Eterna round: R97, puzzle: Exclusion 2) | 120 | 36 | – | – | – | –
5 | CGCAACACAUGAGGAUCAAACAUGAGGAUCACCCAUGUAAAACAAGCUUUUUGCUCGUCUUAUAAAUAUGUGUUGCG [Electric Eye 1 - Jieux - Sensor, turn-off variant 1] (Eterna round: R97, puzzle: Sensor, turn-off variant 1) | 18.4 | 21 | – | – | – | –
6 | GGUAGAGUGGUAGGAUAUCCGUCUGUUUCAGUCGGAGAAGGACCACAGUCACUGGGUCCUAAUAUGGGUGACCAUGUAUCUACC [pwkr exNG1 F6.11] (Eterna round: R96, puzzle: Exclusion NG 1) | 1340 | 348 | 279 | – | – | –
7 | CAGACACAUGAGGAUCACCCAUGUAAGGAUAUGAACUGUGGUAACGGAGCCAGCGGGUUCAGAAGGUGCGUGAC [Eternabot (L1) Solution 19] (Eterna round: R97, puzzle: Exclusion 1) | 77.9 | 91.4 | – | – | – | –
8 | UCUUGUUGUCCUUGAUAAUACAUGAGGAUCACCCAUGUUAUUUUGAUUAUGAUGUGUAAGUUUGUUGCUCGUUUUAU [JR_STOV1_Sub069] (Eterna round: R97, puzzle: Sensor, turn-off variant 1) | 27.7 | 30.9 | – | – | – | –
9 | ACGUCCCAAGUCAGGAUAUAGGCCGGACAAAGGGACUAGAAGGGACAUGAGGAUCACCCAUGUGGGCAAAAGAC [Terarace] (puzzle: Brourd's mod of Exclusion 4) | – | – | – | 29.4 | 29.4 | 32
10 | UCUGCUUUAGGAUAUACGAGAUCCUGCGAUGUACUCUUCGGACAUGAGGAUCACCCAUGUAGAAGGAAAGCAGG [Eternabot (L2) Solution 20] (Eterna round: R97, puzzle: Exclusion 2) | 96.4 | 12.2 | – | – | – | –
11 | UGAUCACAUGAGGAUCACCCAUGUCAGGAUAUCUACAUUGAAGCCUCGGCUUCAAUGUAGAGAAGGGACAUAAU [E1/3-B2] (Eterna round: R97, puzzle: Exclusion 1) | 33.2 | 71.1 | – | – | – | –
12 | GAGUGACAUGAGGAUCACCCAUGUGAGGAUAUCGGACGGACCUUGUUAGCUUCCGCCGCGAGAAGGCACAUCGG [Exclusion 1 V25] (puzzle: Exclusion 1) | – | – | – | – | 94.3 | –
13 | CAAACUUCGCGAGGAUAUGGGAUCAUAUAGAUGCCAGAAGGCGCGACAUGAGGAUCACCCAUGUGUUUUGCCCUGUGAUUCCAG [Eternabot solution 12] (Eterna round: R96, puzzle: Exclusion NG 1) | 22.2 | 21.5 | 16.6 | – | – | –
14 | AAUUAUUAUUGAGGAUAUCGUAUUGAAACAAUACGAGAAGGCGGAAUAAACAUGAGGAUCACCCAUGUGAGCCUGAUGCUUAUG [Ex NG1 #43] (Eterna round: R96, puzzle: Exclusion NG 1) | – | – | 21.1 | – | – | –
15 | AUGCGCAAGCUUUUUGUUCACAUGAGGAUCACCCAUGUUAUGGUCGCCUGUGAGGAGCGAUAGCGUCUCCGACCUGA [Eternabot (Original) Solution 31] (Eterna round: R97, puzzle: Sensor, turn-off variant 1) | 35.7 | 36.5 | – | – | – | –
16 | AGUACUAACACGAUAGUGUUAGUACUAUAAGCUUGUGUUACAUGAGGAUCACCCAUGUCCUCAUAAGCUCGUCUUAU [Mat - Sensor v3 - Turn-off var 2 - D78] (puzzle: Sensor v3, turn-off variant 2) | – | – | – | 95.6 | 118 | 101
17 | AAAAAAAAAGUGAGGAUAUGCUCUACCUCGGUAGAGCAGAAGGCACAUGAGGAUCACCCAUGUGACUCCUCAUU [Omei Ex4B B25] (Eterna round: R97, puzzle: Brourd's mod of Exclusion 4) | 29.6 | 19.1 | – | – | – | –
18 | UUAAUAAUGUAAGGAUAUGCGUGGCGAAGCUAUGCAGAAGGUACAUGAGGAUCACCCAUGUGGUCCGUCUGCGUACAGAUGGAA [JL Eng1 1.08 mod] (Eterna round: R96, puzzle: Exclusion NG 1) | 756 | 365 | 319 | – | – | –
19 | CGAUCACAUGAGGAUCACCCAUGUGAGGAUAUAAUAACGCGGCGUGAGCACGGGAAUUUUAGAAGGCACACGGU [Eternabot (Original) Solution 42] (Eterna round: R97, puzzle: Exclusion 1) | 14.2 | 13 | – | – | – | –
20 | UGAUCAGACCGAGGAUAUAUAUGGAGGACGCACGUGAGUGCGUCCACUACAUGAGGAUCACCCAUGUAGAAGGCGGUCUGAUCU [JL ENG2 1.98] (Eterna round: R96, puzzle: Exclusion NG 2) | 26.2 | 13.1 | 9.6 | – | – | –
21 | ACGAUGACUGAAAAGUGUAAACUGACAUGAGGAUCACCCAUGUAGGAUAUGGCUACGAAAAGUAGUCAGAAGGGCAUGUCAUCA [Omei Exc(NG) 3 Av10] (Eterna round: R96, puzzle: Exclusion NG 3) | 14.3 | 17.1 | 13.4 | – | – | –
22 | CGGGCGUGAGGAUAUCCAUCUGGAUCAGACUAGAUCCUGAUGGAGAAGGCACAUGAGGAUCACCCAUGUACCCG [Eli 4x 4.50] (Eterna round: R97, puzzle: Exclusion 4) | 22.2 | 18.6 | – | – | – | –
23 | AAUAAGCUAGGAUAUACAUGAGGAUCACCCAUGUGAGGGCACGGCCGGCGCGGGCCCGGUAGAAGGAGUCAUAA [Exc;s3-VI] (puzzle: Exclusion 3) | – | – | – | – | 26.4 | –
24 | UGAGCUUGAGGAUAUACAAGGCGACCGUGAGGUCGAGGUUUACAUGAGGAUCACCCAUGUAGAAGGCAAGUUCU [Mat - Exclusion 2 - JL Mod - D8] (Eterna round: R97, puzzle: Exclusion 2) | 41.9 | 18.5 | – | – | – | –
25 | AAAUCGUGAGGAUAUCCAAUAUAUGACAUGAGGAUCACCCAUGUUUCCACUCGUACCUCCGGAGAAGGCACAAUAA [Ex5 #75] (Eterna round: R97, puzzle: Exclusion 5) | 27.2 | 27.1 | – | – | – | –
